What was measured:
[1] = biological target: CML conjugated to KLH (CML-KLH); test: direct binding ELISA, CML-KLH coat 1 ug/mL, antibody at 0.62 ug/mL
[2] = biological target: CML conjugated to KLH (CML-KLH); test: direct binding ELISA, CML-KLH coat 1 ug/mL, antibody at 0.21 ug/mL
[3] = biological target: CML conjugated to KLH (CML-KLH); test: direct binding ELISA, CML-KLH coat 1 ug/mL, antibody at 16.67 ug/mL
[4] = biological target: CML conjugated to KLH (CML-KLH); test: direct binding ELISA, CML-KLH coat 1 ug/mL, antibody at 5.56 ug/mL
[5] = biological target: CML conjugated to KLH (CML-KLH); test: direct binding ELISA, CML-KLH coat 1 ug/mL, antibody at 0.07 ug/mL
[6] = biological target: CML conjugated to KLH (CML-KLH); test: direct binding ELISA, CML-KLH coat 1 ug/mL, antibody at 1.85 ug/mL
[7] = biological target: CML conjugated to KLH (CML-KLH); test: direct binding ELISA, CML-KLH coat 1 ug/mL, antibody at 50 ug/mL

OD450 [1]: 0.083 OD450 | OD450 [2]: 0.075 OD450 | OD450 [3]: 0.312 OD450 | OD450 [4]: 0.165 OD450 | OD450 [5]: 0.086 OD450 | OD450 [6]: 0.092 OD450 | OD450 [7]: 0.462 OD450
Substance: anti-carboxymethyl lysine (CML) antibody (R&D Systems, MAB3247)
